Assay results as given in patent publication US20240052042A1 (Novartis, published 2024).

T1: human NPR1 on CHO-K1 cells (human, UniProt P16066 33-1061)
T1 sequence: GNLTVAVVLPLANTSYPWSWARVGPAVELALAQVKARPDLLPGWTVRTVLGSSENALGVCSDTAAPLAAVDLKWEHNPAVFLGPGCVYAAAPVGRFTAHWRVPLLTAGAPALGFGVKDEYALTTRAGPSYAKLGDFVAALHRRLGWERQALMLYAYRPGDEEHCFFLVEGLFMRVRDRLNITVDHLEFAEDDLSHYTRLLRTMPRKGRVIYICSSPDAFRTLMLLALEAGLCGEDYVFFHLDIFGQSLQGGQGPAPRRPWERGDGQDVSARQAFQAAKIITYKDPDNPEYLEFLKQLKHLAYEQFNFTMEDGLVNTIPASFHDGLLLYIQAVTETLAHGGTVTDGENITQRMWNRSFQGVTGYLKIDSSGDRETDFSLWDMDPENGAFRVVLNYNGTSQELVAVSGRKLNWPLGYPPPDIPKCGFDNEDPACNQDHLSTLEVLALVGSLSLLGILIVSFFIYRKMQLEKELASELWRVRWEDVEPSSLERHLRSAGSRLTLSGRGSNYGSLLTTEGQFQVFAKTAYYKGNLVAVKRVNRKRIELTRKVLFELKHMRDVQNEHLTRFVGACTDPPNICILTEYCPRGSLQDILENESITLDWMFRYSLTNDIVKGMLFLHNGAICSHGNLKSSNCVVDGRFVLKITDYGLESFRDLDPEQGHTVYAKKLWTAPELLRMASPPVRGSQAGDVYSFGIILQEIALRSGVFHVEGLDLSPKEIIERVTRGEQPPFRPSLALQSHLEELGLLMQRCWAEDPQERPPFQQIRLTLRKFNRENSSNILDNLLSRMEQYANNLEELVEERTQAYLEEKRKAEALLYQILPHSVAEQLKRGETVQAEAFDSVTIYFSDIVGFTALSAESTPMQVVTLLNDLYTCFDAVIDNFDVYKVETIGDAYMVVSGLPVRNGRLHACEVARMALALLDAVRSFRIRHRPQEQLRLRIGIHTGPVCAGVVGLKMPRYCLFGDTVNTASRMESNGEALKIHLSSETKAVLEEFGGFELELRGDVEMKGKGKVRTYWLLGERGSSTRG

T2: rNPR1-ANP complex (rat)
T2 sequence: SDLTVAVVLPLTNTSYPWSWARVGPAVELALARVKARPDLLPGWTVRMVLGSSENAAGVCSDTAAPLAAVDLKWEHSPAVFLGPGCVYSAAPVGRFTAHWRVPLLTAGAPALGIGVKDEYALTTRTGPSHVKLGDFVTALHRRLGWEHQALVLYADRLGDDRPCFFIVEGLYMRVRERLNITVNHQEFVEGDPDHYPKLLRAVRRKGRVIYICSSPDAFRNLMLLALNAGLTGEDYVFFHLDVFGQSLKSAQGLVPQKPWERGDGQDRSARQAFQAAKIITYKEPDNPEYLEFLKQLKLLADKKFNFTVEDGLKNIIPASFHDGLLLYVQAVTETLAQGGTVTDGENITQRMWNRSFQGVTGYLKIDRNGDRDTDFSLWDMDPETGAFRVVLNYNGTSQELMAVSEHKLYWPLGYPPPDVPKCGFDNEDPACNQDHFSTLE
T2 sequence (peptide): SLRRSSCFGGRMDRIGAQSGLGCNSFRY

T3: hNPR1-ANP complex (human, UniProt P01160 124-151, limits assumed)
T3 construct: hNPR1 antigen in the presence of ANP; also called hNPR1 + 100 nM ANP
T3 sequence: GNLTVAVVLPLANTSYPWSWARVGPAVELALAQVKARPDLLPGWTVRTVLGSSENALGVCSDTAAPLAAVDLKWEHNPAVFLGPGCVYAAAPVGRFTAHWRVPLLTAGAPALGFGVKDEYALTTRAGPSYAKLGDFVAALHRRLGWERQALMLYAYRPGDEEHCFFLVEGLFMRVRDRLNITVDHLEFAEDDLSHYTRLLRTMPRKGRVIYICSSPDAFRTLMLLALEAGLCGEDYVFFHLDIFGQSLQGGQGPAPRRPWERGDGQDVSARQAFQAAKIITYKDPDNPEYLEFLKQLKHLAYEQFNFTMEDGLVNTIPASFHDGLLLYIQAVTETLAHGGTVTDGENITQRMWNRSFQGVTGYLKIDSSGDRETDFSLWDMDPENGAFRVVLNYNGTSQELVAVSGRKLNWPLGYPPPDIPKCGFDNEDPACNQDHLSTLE
T3 sequence (peptide): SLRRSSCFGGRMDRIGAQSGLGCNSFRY

T4: human NPR3 in the presence of ANP (human, UniProt P17342 27-481; P01160 124-151, limits assumed)
T4 construct: also called hNPR3 + 100 nM ANP
T4 sequence (looked up): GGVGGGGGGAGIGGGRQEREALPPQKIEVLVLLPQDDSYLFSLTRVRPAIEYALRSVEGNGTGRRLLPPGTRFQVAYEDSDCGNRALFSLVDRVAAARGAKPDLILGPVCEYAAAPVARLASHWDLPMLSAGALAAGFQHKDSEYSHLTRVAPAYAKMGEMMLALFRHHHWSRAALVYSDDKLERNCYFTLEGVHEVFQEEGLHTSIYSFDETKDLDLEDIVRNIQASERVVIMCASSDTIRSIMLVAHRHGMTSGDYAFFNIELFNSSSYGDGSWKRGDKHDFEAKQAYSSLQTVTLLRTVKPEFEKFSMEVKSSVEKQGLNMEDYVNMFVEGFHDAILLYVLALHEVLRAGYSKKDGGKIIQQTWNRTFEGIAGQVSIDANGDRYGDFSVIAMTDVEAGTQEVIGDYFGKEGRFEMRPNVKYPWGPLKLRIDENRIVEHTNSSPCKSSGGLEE
T4 sequence (peptide, looked up): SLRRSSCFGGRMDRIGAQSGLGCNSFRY

T5: rNPR1-ANP complex (rat, UniProt P01160 124-151 (human entry), limits assumed)
T5 construct: rNPR1 antigen in the presence of ANP; also called rNPR1 + 100 nM ANP
T5 sequence: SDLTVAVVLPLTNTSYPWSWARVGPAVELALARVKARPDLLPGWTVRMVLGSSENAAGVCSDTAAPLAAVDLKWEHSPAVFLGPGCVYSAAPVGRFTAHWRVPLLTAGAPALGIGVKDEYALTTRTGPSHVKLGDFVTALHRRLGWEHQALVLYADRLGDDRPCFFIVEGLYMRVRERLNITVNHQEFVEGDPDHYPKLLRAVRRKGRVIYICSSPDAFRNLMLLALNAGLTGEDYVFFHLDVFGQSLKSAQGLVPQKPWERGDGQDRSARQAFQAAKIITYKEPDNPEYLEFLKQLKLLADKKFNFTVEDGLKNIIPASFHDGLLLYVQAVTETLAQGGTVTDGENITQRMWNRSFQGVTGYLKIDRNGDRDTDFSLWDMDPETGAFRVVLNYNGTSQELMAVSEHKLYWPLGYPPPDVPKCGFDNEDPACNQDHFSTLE
T5 sequence (peptide): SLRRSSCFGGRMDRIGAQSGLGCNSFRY

B1: YY06 (IgG format) (antibody, V domains shown)
VH: EVQLLESGGGLVQPGGSLRLSCAASGFTFSSYAISWVRQAPGKGLEWVSAISGSGGSTYYAESVKGRFTISRDNSKNTLYLQMNSLRAEDTAVYYCARPYLGDRRSYGFDHWGQGTLVTVSS
VL: QSALTQPASVSGSPGQSITISCTGTSSDVGSYNLVSWYQQHPGKAPKLMIYEGSKRPSGVSNRFSGSKSGNTASLTISGLQAEDEADYYCSSYGFHIVVVVFGGGTKLTVLG
notes: also called YY06_LALA
B2: YY07 (IgG format) (antibody, V domains shown)
VH: EVQLVQSGAEVKKPGESLKISCKGSGYSFTSYWISWVRQMPGKGLEWMGIIYPGTSYTRYSPSFQGQVTISADKSISTAYLQWSSLKASDTAMYYCARGSLPGLLGFDHWGQGTLVTVSS
VL: QSVLTQPPSVSGAPGQRVTISCTGSSSNIGAGYDVHWYQQLPGTAPKLLIYGNSNRPNGVPDRFSGSKSGTSASLAITGLQAEDEADYYCQSYDSPTSSSVFGGGTKLTVLG
notes: also called YY07_LALA

What was measured:
[1] = target: T1, human NPR1 on CHO-K1 cells; test: cell-based or functional assay
[2] = target: constitutively active human NPR1 mutant (W74R) (human) (UniProt P16066); test: ELISA, 1 µM IgG
[3] = target: W74R hNPR1 mutant in the presence of ANP (human) (UniProt P01160); test: ELISA, 1 µM IgG
rNPR1-ANP complex (rat) = target: T2, rNPR1-ANP complex (rat); test: ELISA, 1 µM IgG
hNPR1-ANP complex = target: T3, hNPR1-ANP complex; test: ELISA, IgG titrated on coated antigen with ANP (250 fold molar excess), fluorescence [Cont.]
[4] = target: constitutively active human NPR1 mutant (W74R) (human) (UniProt P16066); test: ELISA, IgG titrated on coated antigen, fluorescence [Cont.]
[5] = target: T4, human NPR3 in the presence of ANP; test: ELISA, IgG titrated on coated antigen with ANP (250 fold molar excess), fluorescence [Cont.]
rNPR1-ANP complex = target: T5, rNPR1-ANP complex; test: ELISA, 1 µM IgG; set-up: unit not given here

| Binder | cGMP conc [nM] at 1 µM IgG, +0.075 nM ANP [1] [nM] | cGMP conc [nM] at 1 µM IgG, without ANP [1] [nM] | ELISA binding at 1 µM IgG [2] | ELISA binding at 1 µM IgG [3] | ELISA binding at 1 µM IgG (rNPR1-ANP complex (rat)) | EC50 (read off the curve) (hNPR1-ANP complex) [nM] | EC50 (read off the curve) [4] [nM] | binding result [5] | ELISA binding at 1 µM IgG (rNPR1-ANP complex) |
| --- | --- | --- | --- | --- | --- | --- | --- | --- | --- |
| B1 | 15 | 12 | 83 | 86 | 4 | ~7 | 5 | – | – |
| B2 | 9 | 4 | 53 | 20 | – | – | 2 | no binding (tested: 1000 nM) | 3 |
